From publication PMC3978581 come the findings set out here.

The target of experiment [1] is Human prolactin receptor, endogenous on human breast cancer cell lines (human (endogenous in T47D, SKBR3, MDA-MB-468, MCF-7, BT474)) (UniProt P16471).
Experiment [2] has the same target. The source holds these as a separate data set.

Bounds are passed on as bounds.

UniProt P16471, sequence (P16471 25-622, stated change not applied): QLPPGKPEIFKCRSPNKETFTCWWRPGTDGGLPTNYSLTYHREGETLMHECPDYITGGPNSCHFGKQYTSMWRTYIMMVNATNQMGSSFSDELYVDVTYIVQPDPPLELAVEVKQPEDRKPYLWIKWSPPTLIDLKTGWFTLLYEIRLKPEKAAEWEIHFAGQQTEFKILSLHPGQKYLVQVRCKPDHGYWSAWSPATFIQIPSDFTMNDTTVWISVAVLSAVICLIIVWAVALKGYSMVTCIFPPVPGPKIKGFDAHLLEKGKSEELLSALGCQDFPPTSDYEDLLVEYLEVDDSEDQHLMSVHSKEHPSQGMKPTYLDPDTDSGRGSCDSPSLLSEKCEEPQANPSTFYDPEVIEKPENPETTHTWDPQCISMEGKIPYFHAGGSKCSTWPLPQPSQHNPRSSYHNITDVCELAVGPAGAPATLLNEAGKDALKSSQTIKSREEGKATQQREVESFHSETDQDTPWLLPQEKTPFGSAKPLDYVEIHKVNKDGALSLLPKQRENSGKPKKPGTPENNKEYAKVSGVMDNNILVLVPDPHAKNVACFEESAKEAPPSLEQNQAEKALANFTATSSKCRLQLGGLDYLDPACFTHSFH

On to “Recombinant human prolactin (from UniProt P01236 29-227) (ligand)”, for which the loss of prolactin-stimulated Stat5 and Erk phosphorylation in T47D and SKBR3 cells over pHe 7.4 to 6.6; percent diminished at pHe 6.8 against pHe 7.4 in experiment [1] is more than 80%. For the same substance, in experiment [2], the EC50 of prolactin (1 to 100 nM, 15 min) for Stat5 tyrosine phosphorylation in SKBR3 cells at pHe 6.8 was found to be 119 nM; the EC50 of prolactin (1 to 100 nM, 15 min) for Stat5 tyrosine phosphorylation in SKBR3 cells at pHe 7.4 is 3.3 nM; the EC50 of prolactin (1 to 100 nM, 15 min) for Stat5 tyrosine phosphorylation in T47D cells at pHe 6.8 came to 37.8 nM; the EC50 of prolactin (1 to 100 nM, 15 min) for Stat5 tyrosine phosphorylation in T47D cells at pHe 7.4 came out at 3.7 nM.
